Ends that are not written are not given here.
How the values were obtained:
GM7373 cells = assay: Cell proliferation assay, endothelial GM7373 cells; assay type: cell-based, bovine; details: for inhibition of mitogenic activity exerted by FGF2 / inhibition of FGF2 mitogenic activity by conditioned medium of infected MAE cells: FGF2 0.55 nM; for inhibition of mitogenic activity exerted by FGF2: peptides 66 μM, PTX3 220 nM; for inhibition of FGF2 mitogenic activity by conditioned medium of infected MAE cells: 24 h
Method: Cell proliferation assay on endothelial cells was performed as described^22. Briefly, GM7373 or MAE cells were seeded in 96-well dishes at 75,000 cells/cm^2 or 25,000 cells/cm^2, respectively. After 16 h, cells were incubated in fresh medium containing 0.4% FCS plus FGF2 (0.55 nM) in the absence or in the presence of different antagonists. After 24 or 48 h, respectively, cells were trypsinized and counted in a Burker chamber.

FGF2 [1] = molecular target: T1, FGF2 (Homo sapiens, UniProt P09038); assay: Solid phase binding assay, FGF2 binding to immobilized synthetic PTX3 peptides; design: made in house; host or cells: E. coli; details: peptides 200 μg/well, FGF2 80 nM
T1 sequence (P09038 134-288): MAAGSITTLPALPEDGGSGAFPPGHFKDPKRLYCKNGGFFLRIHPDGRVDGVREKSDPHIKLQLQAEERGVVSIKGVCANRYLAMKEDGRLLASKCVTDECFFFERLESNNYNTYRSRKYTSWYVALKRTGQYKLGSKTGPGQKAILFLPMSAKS
Method: (§1) ELISA microplates were incubated for 16 hours at 4° C. with 100 μl/well of 100 mM NaHCO3, pH 9.6 (coating buffer) containing FGF2 (270 nM). Then, wells were overcoated for 2 hours at room temperature with 5% dry milk in coating buffer. […] Then, wells were sequentially incubated for 1 hour at 37° C. with a rabbit polyclonal anti-PTX3 antibody (1:2000 dilution) that recognizes both PTX3 fragments with similar efficiency in Western blot and ELISA, an anti-rabbit biotinylated antibody (1:2000), and 100 μl of streptavidin-horseredish peroxidase (1:5000, Amersham) for 1 hour at room temperature. Then, 100 μl/well of the chromogen substrate 2,29-azinobis(3-ethylbenzthiazolinesulfonic acid) were added. Absorbance values were read at 405 nm in an automatic ELISA reader. In some experiments, 100-μl aliquots of PBS containing biotin-labeled PTX3 (bPTX3) (22 nM) were incubated for 30 minutes at 37° C. onto FGF2-coated wells with or without competitors. Then, wells were washed, and the amount of bound bPTX3 was evaluated as described^17. Alternatively, synthetic PTX3 peptides were immobilized on ELISA microplate wells (200 μg/well) as described above. Then, FGF2 (80 nM) was added and FGF2 bound to immobilized peptides was assessed by 1 hour incubation at 37° C. with a rabbit polyclonal anti-FGF2 antibody (1:7000) followed by immunocomplex detection as described above.

FGF2 [2] = molecular target: T1, FGF2; assay: BIAcore binding assay, FGF2 binding to PTX3 immobilized to a sensorchip; design: made in house; host or cells: FGF2: E. coli; PTX3: Chinese hamster ovary cells; details: for inhibition of FGF2 binding to PTX3 immobilized to a BIAcore sensorchip / IC50: FGF2 0.8 μM; for inhibition of FGF2 binding to PTX3 immobilized to a BIAcore sensorchip: increasing peptide concentrations; for IC50: antagonist in mobile phase, read-out: ID50, inhibition of FGF2 binding to the PTX3 surface
Method: A BIAcore X apparatus (BIAcore Inc, Piscataway, N.J.) was used. Surface plasmon resonance was exploited to measure changes in refractive index caused by the ability of FGF2 to bind to PTX3 immobilized to a BIAcore sensorchip. To this purpose, PTX3 (2.2 μM) was allowed to react with a flow cell of a CM4 sensorchip that was previously activated with 50 μl of a mixture of 0.2 M N-ethyl-N′-(3-dimethylaminopropyl)-carbodiimide hydrochloride and 0.05 M N-hydroxysuccinimide. These experimental conditions allowed the immobilization of 5,000 resonance units (RUs), corresponding to approximately 0.1 pmoles of PTX3. Similar results were obtained for immobilization of gelatin, here used as a negative control and for blank subtraction. Increasing concentrations of FGF2 with or without synthetic PTX3 peptides were then injected in dilution buffer (PBS plus 0.005% surfactant P20, 5.0 μg/mL CaCl2 and MgCl2) over the PTX3 surface for 4 minutes (to allow their association with immobilized PTX3) and then washed until dissociation was observed.

chick embryo CAM = assay: Chicken embryo chorioallantoic membrane (CAM) assay, FGF2-induced neovascularization; assay type: in vivo; details: for macroscopic vessels converging towards the implant: FGF2 16 pmoles/embryo, with or without 3.0 nmoles of peptide, 72 hours
Method: Alginate beads (5 μl) containing vehicle or 16 pmoles of FGF2 with or without synthetic PTX3 peptides were prepared as described 24 and placed on top of the CAM of fertilized White Leghorn chicken eggs at day 11 of incubation (10 eggs per experimental group). After 72 hours, blood vessels converging towards the implant were counted by two observers in a double-blind fashion under a stereomicroscope (STEMI-SR, x2/0.12; Zeiss).

MAE cells = assay: Cell proliferation assay, retrovirus infected MAE cells stimulated with FGF2; assay type: cell-based, murine; details: retroviral overexpression in MAE cells, FGF2 0.55 nM, 48 h
Text: The cDNAs encoding for human PTX3 and for the enhanced green fluorescent protein (EGFP) were obtained as described^17. The cDNAs encoding for the N-terminal fragment PTX3(1-178) (Nterm-PTX3) and the C-terminal fragment PTX3(179-381) fused to the leader sequence for secretion PTX3(1-17) (sCterm-PTX3) were generated from pLX-PTX3^17 by PCR and standard cloning techniques. All cDNAs were cloned in the pBABE retroviral vector thus generating pBABE-PTX3, pBABE-Nterm-PTX3, pBABE-sCterm-PTX3, and pBABE-EGFP that were used to transfect the EcoPack2-293 packaging cells in the presence of Lipofectamin 17. Transduced cells were selected with puromycin (1 μg/ml, Sigma) for 2 weeks. Clones with a viral titer higher than […] were used for further experimentation. Confluent cultures of MAE cells were then incubated for 24 hours with the conditioned medium from pBABE-PTX3, pBABE-Nterm-PTX3, PBABE-sCterm-PTX3, or pBABE-EGFP packaging cells in the presence of polybrene (8 μg/ml, Sigma). Infected cell populations were selected for 7 days with puromycin. […] To assess the levels of transgene protein expression and release by infected cells, cell cultures were grown under serum-free conditions for 2 days. […]
Cell proliferation assay on endothelial cells was performed as described^22. […] After 24 or 48 h, respectively, cells were trypsinized and counted in a Burker chamber.

FGF2/PTX3 interaction = molecular target: T2, FGF2/PTX3 interaction (Homo sapiens, UniProt P09038+P26022); assay: Solid phase binding assay, biotinylated PTX3 (bPTX3) binding to immobilized FGF2 with competitors; details: bPTX3 22 nM, competitor 10 fold-molar excess (220 nM)
T2 construct: biotinylated PTX3 (bPTX3, 22 nM) in the absence or in the presence of a 10 fold-molar excess of full length PTX3; made in house; host or cells: FGF2: E. coli; PTX3: Chinese hamster ovary cells
T2 sequence (P09038 134-288): as above
T2 sequence (P26022 18-381): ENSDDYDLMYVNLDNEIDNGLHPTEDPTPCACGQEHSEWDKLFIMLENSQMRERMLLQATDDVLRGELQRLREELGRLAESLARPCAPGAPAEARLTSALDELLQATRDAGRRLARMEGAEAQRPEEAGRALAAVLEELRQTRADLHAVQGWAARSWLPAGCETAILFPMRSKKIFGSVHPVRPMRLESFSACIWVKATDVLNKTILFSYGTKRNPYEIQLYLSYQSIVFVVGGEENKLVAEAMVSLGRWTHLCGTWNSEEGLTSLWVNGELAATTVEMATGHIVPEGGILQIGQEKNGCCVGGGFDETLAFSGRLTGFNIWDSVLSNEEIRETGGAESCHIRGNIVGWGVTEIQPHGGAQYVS
Method: ELISA microplates were incubated for 16 hours at 4° C. with 100 μl/well of 100 mM NaHCO3, pH 9.6 (coating buffer) containing FGF2 (270 nM). Then, wells were overcoated for 2 hours at room temperature with 5% dry milk in coating buffer. […] Then, 100 μl/well of the chromogen substrate 2,29-azinobis(3-ethylbenzthiazolinesulfonic acid) were added. Absorbance values were read at 405 nm in an automatic ELISA reader. In some experiments, 100-μl aliquots of PBS containing biotin-labeled PTX3 (bPTX3) (22 nM) were incubated for 30 minutes at 37° C. onto FGF2-coated wells with or without competitors. Then, wells were washed, and the amount of bound bPTX3 was evaluated as described^17. Alternatively, synthetic PTX3 peptides were immobilized on ELISA microplate wells (200 μg/well) as described above. Then, FGF2 (80 nM) was added and FGF2 bound to immobilized peptides was assessed by 1 hour incubation at 37° C. with a rabbit polyclonal anti-FGF2 antibody (1:7000) followed by immunocomplex detection as described above.

FGF2 [3] = molecular target: T1, FGF2; assay: Solid phase binding assay, PTX3 proteins on FGF2-coated wells; design: made in house; host or cells: E. coli; details: proteins at 44 nM, 30 minutes at 37° C.
Method: as §1

Molecule | inhibition of mitogenic activity exerted by FGF2 (GM7373 cells) | binding of free FGF2 to immobilized peptide or PTX3 (FGF2 [1]) | inhibition of FGF2 binding to PTX3 immobilized to a BIAcore sensorchip (FGF2 [2]) | further results
DNEIDNGLHPTEDPTPCDCGQEHSEWDKLF [PTX3(31-60)] | ineffective | not | no inhibitory effect | –
RGELQRLREELGRLA [PTX3(82-96)] | not | without interacting | ineffective | effect on angiogenic response triggered by FGF2 (chick embryo CAM; FGF2 16 pmoles): no effect
ARPCAPGAPAE [PTX3(100-110)] | – | – | did not prevent the binding | –
RGELQRLREELGRLAESLARPCAPGAPAE [PTX3(82-110)] | inhibit | binds | – | IC50 (GM7373 cells; dose-response, read-out: ID50, FGF2-antagonist activity on GM7373 cell proliferation): 30 µM; macroscopic vessels converging towards the implant (chick embryo CAM): 28±5 vessels/embryo; IC50 (FGF2 [2]): 30 µM; potency relative to free full length PTX3 (FGF2 [2]; inhibition of FGF2 binding to PTX3 surface): 30 times lower
ARPCA [PTX3(100-104)] | inhibits | – | significant binding to FGF2 | –
EGLRGELRGSREAELLRQAARAPACPLPE [scrambled PTX3(82-110), reference compound] | – | – | – | IC50 (FGF2 [2]): > 3000 µM
FGF2: Human recombinant FGF2 expressed in E. coli; heparin-binding growth factor, the angiogenic stimulus | – | – | – | macroscopic vessels converging towards the implant (chick embryo CAM): 44±7 vessels/embryo
RGELQRLREELGRLAESLAR [PTX3(82-101)] | not | without interacting | ineffective | –
APAEARLTSALDELLQATRDAGRRLA [PTX3(107-132)] | ineffective | limited interaction | no inhibitory effect | –
DKLFIMLENSQMRERMLLQATDDVLRGEL [PTX3(57-85)] | ineffective | not | no inhibitory effect | –
PTX3: Human recombinant PTX3 (swiss-prot P26022) expressed in Chinese hamster ovary cells; long-pentraxin | inhibit | binds | – | capacity of infected cells to proliferate in response to exogenous FGF2 (MAE cells): significant decrease; inhibition of FGF2 mitogenic activity by conditioned medium of infected MAE cells (GM7373 cells): significant inhibition; prevention of bPTX3 binding to immobilized FGF2 (FGF2/PTX3 interaction): prevents the capacity of bPTX3 to bind immobilized FGF2; prevention of bPTX3 binding to immobilized FGF2 (FGF2/PTX3 interaction; listed as full length PTX3): prevented the binding; binding to FGF2 immobilized to non-tissue culture plastic (FGF2 [3]): showed the capacity to bind FGF2; FGF2 bound at the end of the injection phase (FGF2 [2]; FGF2 0.8 μM over immobilized PTX3): 350-400 RU; kinetic dissociation constant (koff) of FGF2/PTX3 interaction (FGF2 [2]; FGF2 0.1 to 1.1 μM over immobilized PTX3): 6e-05 s⁻¹
ESLARPCA [PTX3(97-104)] | – | – | did not prevent the binding | –
ESLARPCAPGA [PTX3(97-107)] | – | – | significant binding to FGF2 | –
ESLARPCAPGAPAE [PTX3(97-110)] | inhibits | binds | preventing its interaction with PTX3 immobilized to a BIAcore sensorchip | inhibition in the angiogenic response triggered by FGF2 (chick embryo CAM; 80 nmoles of peptide, FGF2 16 pmoles): 50%
Cterm-PTX3: recombinant 6×His-tagged C-terminal fragment of PTX3 from E. coli (protein) CETAILFPMRSKKIFGSVHPVRPMRLESFSACIWVKATDVLNKTILFSYGTKRNPYEIQLYLSYQSIVFVVGGEENKLVAEAMVSLGRWTHLCGTWNSEEGLTSLWVNGELAATTVEMATGHIVPEGGILQIGQEKNGCCVGGGFDETLAFSGRLTGFNIWDSVLSNEEIRETGGAESCHIRGNIVGWGVTEIQPHGGAQYVSHHHHHH | – | – | – | binding to FGF2 immobilized to non-tissue culture plastic (FGF2 [3]): No interaction
sCterm-PTX3: C-terminal fragment PTX3(179-381) fused to the leader sequence for secretion PTX3(1-17) (protein) CETAILFPMRSKKIFGSVHPVRPMRLESFSACIWVKATDVLNKTILFSYGTKRNPYEIQLYLSYQSIVFVVGGEENKLVAEAMVSLGRWTHLCGTWNSEEGLTSLWVNGELAATTVEMATGHIVPEGGILQIGQEKNGCCVGGGFDETLAFSGRLTGFNIWDSVLSNEEIRETGGAESCHIRGNIVGWGVTEIQPHGGAQYVS | – | – | – | capacity of infected cells to proliferate in response to exogenous FGF2 (MAE cells): No inhibition; inhibition of FGF2 mitogenic activity by conditioned medium of infected MAE cells (GM7373 cells): ineffective

Reference: patent publication US8076300B2, “FGF2-binding peptides and uses thereof” (Tecnogen S.p.A., priority 2006, dated 2011)
